Test [1] deals with SARS-CoV-2 full length spike protein, V483A mutant, expressed on the surface of CHO cells (SARS-CoV-2, UniProt P0DTC2 14-1273).
For test [2], the target named is SARS-CoV-2 full length spike protein, V483A mutant (SARS-CoV-2, UniProt P0DTC2 14-1273).

B1: antibody 323 (antibody, V domains shown)
VH: QVQLVQSGAEVKKPGASVKVSCKVSGYTLTELSMHWVRQAPGKGLEWMGGFDPEDGETIYAQKFQGRVTMTEDTSTDTAYMELSSLRSEDTAVYYCATSTIFAPGGWFDPWGQGTLVTVSS
VL: QSALTQPASVSGSPGQSITISCTGTSSDVGSYNLVSWYQQHPGKAPKLMIYEVSKRPSGVSNRFSGSKSGNTASLTISGLQAEDEADYYCCSYAGSTHYVFGTGTKVTVL
Consider B1, for which, in test [1], the “median fluorescence intensity, fold over isotype control” value (“median fluorescence intensity, fold” below) came out at 19 fold over isotype.

B2: antibody 324 (antibody, V domains shown)
VH: QVQLQESGPGLVKPSGTLSLTCAVSGGSISSSNWWSWVRQPPGKGLEWIGEIYHSGSTNYNPSLKSRVTISVDNSKNQFSLKLSSVTAADTAVYYCARESVAAAGISYYYYGMDVWGQGTTVTVSS
VL: EIVLTQSPGTLSLSPGERATLSCRASQSVSGRYLAWYQQKPGQAPRLLIYGASSRATGIPDRFSGSGSGTDFTLTISRLEPEDFAVYYCQHYGSSPGTFGQGTRLEIK
For B2, the “median fluorescence intensity, fold” value in test [1] was found to be 24.9 fold over isotype.

B3: antibody 345 (antibody, V domains shown)
VH: QVQLQESGPGLVKPSQTLSLTCTVSGGSISSGDYYWSWIRQPPGKGLEWIGYIYYSGSTYYNPSLKSRVTISVDTSKNQFSLKLSSVTAADTAVYYCARVGMVDNWNFEGNWFDPWGQGTLVTVSS
VL: QSALTQPRSVSGSPGQSVTISCTGTSSDVGGYNYVSWYQQHPGKAPKLMIYDVSKRPSGVPDRFSGSKSGNTASLTISGLQAEDEADYYCCSYAGSVVFGGGTKLTVL
For B3, in test [1], the “median fluorescence intensity, fold” value amounted to 9.41 fold over isotype.

B4: antibody 522 (antibody, V domains shown)
VH: EVQLVESGGGLVQPGGSLRLSCAASGFNFSSYSMNWVRQAPGKGLEWVSYISSSSSTIYYADSVKGRFTISRDNAKNSLYLQMNSLRDEDTAVYYCARGPEWDIVVVQAENWFDPWGQGTLVTVSS
VL: SYELTQPPSVSVSPGQTARITCSGDALPKQYVYWYQQKPGQAPVLVIYKDSERPSGIPERFSGSSSGTTVTLTISGVQAEDEADYYCQSADSSGTYRGVFGGGTKLTVL
With B4, the “median fold over isotype” value in test [2] was determined as 6.75 fold over isotype.

B5: antibody 316 (antibody, V domains shown)
VH: QVHLVESGGGVVQPGRSLRLSCAASGFTLTAYAMHWVRQAPGKRLEWVALISYDGSVKKYADSVKGRITVSGDTSTNTLHLQMNSLRADDTAVYYCVRGGVSGPNSFDLWGQGTMVTVSS
VL: DVVMTQSPLSLPVTLGQPASMSCRSSQSLEYSDGNTYVNWFHQRPGQSPRRLIYKVSYRDSGVPDRFSGSGSGTDFTLQISRVEAEDVGIYYCMQGTHWPVTFGQGTKVEIK
For the molecule B5, the “median fluorescence intensity, fold” value in test [1] came to 10.4 fold over isotype.

B6: antibody 517 (antibody, V domains shown)
VH: QVQLVESGGGVVQPGRSLRLSCAASGFNLSNYAMHWVRQASGKGLEWVSLISYDGSIKYYTDSVKGRFTVSGDNSKNTLFLQMNSLRADDSALYYCVRGGVSGPNSFDMWGQGTTVTVSS
VL: DVVMTQSPLSLPVTLGQPASISCRSSQSLVYSDGNTYVNWFQQRPGQSPRRLIYQVSIRASGVPDRFSGSGSGTDFALKISRVEAEDVGVYYCMQGTHWPVTFGQGTKVEIK
On to B6, for which the “median fold over isotype” value in test [2] stood at 11.5 fold over isotype.

B7: antibody 365 (antibody, V domains shown)
VH: QVQLVESGGGVVQPGRSLRLSCAASGFNLSSYAMHWVRQASGKGLEWVSLISYDGSIKYYTDSVKGRFTVSGDNSKNTLFLQMNSLRPDDSALYYCVRGGVSGPNSFDMWGQGTTVTVSS
VL: DVVMTQSPLSLPVTLGQPASISCRSSQSLVYSDGNTYVNWFQQRPGQSPRRLIYKVSIRASGVPDRFSGSGSGTDFALKISRVEAEDVGVYYCMQGTHWPVTFGQGTKVEIK
For B7, the “median fluorescence intensity, fold” value in test [1] stood at 11.2 fold over isotype.

B8: antibody 327 (antibody, V domains shown)
VH: QVQLVESGGGVVQPGRSLRLSCAASGFNLSNYAMHWVRQASGKGLEWVSLISYDGSIKYYTDSVKGRFTVSGDNSKNTLFLQMNSLRPDDSALYYCVRGGVSGPNSFDMWGQGTTVTVSS
VL: DVVMTQSPLSLPVTLGQPASISCRSSQSLVYSDGNTYVNWFQQRPGQSPRRLIYQVSIRASGVPDRFSGSGSGTDFALKISRVEAEDVGIYYCMQGTHWPVTFGQGTKVEIK
For B8, the “median fluorescence intensity, fold” value in test [1] was 10.4 fold over isotype.

B9: antibody 340 (antibody, V domains shown)
VH: QVQLVQSGAEVKKPGASVKVSCKASGYTFTSYDINWVRQATGQGLEWMGWMNPNSGNTGYAQKFQGRVTMTRNTSISTAYMELSSLRSEDTAVYYCARGRYCTGGVCWGDWYFDLWGRGTLVTVSS
VL: QSVLTQPPSVSGAPGQRVTISCTGSSSNIGAGYDVHWYQQLPGTAPKFLIYGNSNRPSGVPDRFSGSKSGTSASLAITGLQAEDEADYYCQSYDSSLSGPVFGGGTKLTVL
With B9, the “median fluorescence intensity, fold” value in test [1] was 26.3 fold over isotype.

B10: antibody 329 (antibody, V domains shown)
VH: EVQLVESGGGLVQPGGSLRLSCAASGFTFSSYWMHWVRQAPGKGLVWVSRINSDGSSTSYADSVKGRFTISRDNAKNTLYLQMNSLRAEDTAVYYCAREGIVATITLDYWGQGTLVTVSS
VL: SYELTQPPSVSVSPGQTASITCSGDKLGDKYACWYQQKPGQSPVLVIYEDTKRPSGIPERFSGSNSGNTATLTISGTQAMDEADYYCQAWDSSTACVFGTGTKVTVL
Turning to B10, the “median fluorescence intensity, fold” value in test [1] amounted to 10.6 fold over isotype.

B11: antibody 331 (antibody, V domains shown)
V domain 1: QITLKESGPTLVKPTETLTLTCSFSGFSLTKTGEAAGWIRQAPGRALEWVTVIFWDDDKRYSPSLQNRISVTKDTSKNQVVLRMTNVARFDTGTYFCWAMGGPGKEYFGQGTLVAVSS
V domain 2: QSVLTQPPSVSGAPGQRVTISCTGTSSSIGPYSDVHWYQHVSGKAPRLLIFGNSNRPSGVPDRFSGSKSGTSASLVIAGLQAEDEADYYCQSYDSSLGEIYVFGTGTTVTVL
In the case of B11, the “median fluorescence intensity, fold” value in test [1] was determined as 18.1 fold over isotype.

B12: antibody 339 (antibody, V domains shown)
V domain 1: QITLKESGPTLVKPTETLTLTCSFSGFSLTRTGEAAGWIRQAPGRALEWVTVIFWDDDKRYSPSLQSRLTVTKDTSKNQVVLTMTNVARFDTATYFCWAMGGPGKEYFGQGTQVAVSS
V domain 2: QSVLTQPPSVSGAPGQRVTISCTGTSSSIGPYSDVHWYQHVSGKAPRLLIFGNSNRPSGVPDRFSGSKSGTSASLVIAGLQAEDEADYYCQSYDSSLGEIYVFGTGTTVTVL
As to B12, the “median fluorescence intensity, fold” value in test [1] was determined as 18.2 fold over isotype.

B13: antibody 363 (antibody, V domains shown)
VH: EVQLLESGGGLVQPGGSLRLSCAASGFTFSTYAMSWVRQAPGKGLEWVSAISGSGGSTYYADSVKGRFTISRDNSKNTLYLQMNSLRAEDTAVYYCASGYSPDYWGQGTLVTVSS
VL: not shown
Consider B13, for which the “median fluorescence intensity, fold” value in test [1] is 15.1 fold over isotype.

B14: antibody 516 (antibody, V domains shown)
VH: QVELQQWGAGLLKPSETLSLTCAVYGGSFSGYYWSWIRQPPGKGLEWIGEINHSGSTNYNPSLKSRVTISIDTSKNQFSLKLSSVTAADTAVYYCARGTTVTTFFAPHWYFDLWGRGTLVTVSS
VL: QSALTQPASVSGSPGQSITISCTGTSSDVGGYNYVSWYQQHPGKAPKLMIYDVSNRPSGVSNRFSGSKSGNTASLTISGLQAEDEADYYCSSYTSSSTPYVFGTGTKVTVL
Take B14: the “median fold over isotype” value in test [2] was found to be 2.61 fold over isotype.

B15: antibody 317 (antibody, V domains shown)
VH: QVQLVQSGAEVKKPGASVKVSCKVSGYTLTELSMHWVRQAPGKGLEWMGGFDPEDGETIYAQKFQGRVTMTEDTSTDTAYMELSSLRSEDTAVYYCASSPAAAGTSQYYYYYGMDVWGQGTTVTVSS
VL: not shown
On to B15, for which the “median fluorescence intensity, fold” value in test [1] turned out to be 10.3 fold over isotype.

B16: antibody 326 (antibody, V domains shown)
VH: QITLKESGPTLVKPTQTLTLTCTFSGFSLNTSGVGVGWIRQPPGKALEWLSLIFWNDDKRYSPSLRSRLTITKDTSKNQVVLTMTNMDPVDTATYFCAHRNSGWSLKFDSWGQGSLVTVSA
VL: DIQMTQSPSSVSASVGDRVTITCRARQGISSWLVWYQQKPGKAPKLLIFGASSLQSGVPSRFNASGTGTEFTLTISSLQPEDFATYYCQQADSFPITFGQGTRLEIK
On to B16, for which the “median fluorescence intensity, fold” value in test [1] is 10.2 fold over isotype.

B17: antibody 514 (antibody, V domains shown)
VH: EVQLVQSGAEVKKPGATVKISCKVSGYTFTDYYMHWVQQAPGKGLEWMGLVDPEDGETIYAEKFQGRVTITADTSTDTAYMELSSLRSEDTAVYYCATDCKYDILTGHYSAGYYYYGMDVWGQGTTVTVSS
VL: DIQMTQSPSSLSASVGDRVTITCRASQGISNYLAWFQQKPGKAPKSLIYAASSLQSGVPSKFSGSGSGTDFTLTISSLQPEDFATYYCQQYNSYPFTFGGGTKVEIK
For B17, in test [2], the “median fold over isotype” value worked out at 1.39 fold over isotype.

B18: antibody 366 (antibody, V domains shown)
VH: QVQLVESGGGVVQPGRSLRLSCAASGFTFSSYAMHWVRQAPGKGLEWVAVISYDGSNKYYADSVKGRFTISRDNSKNTLYLQMNSLRAEDTAVYYCARGLVGYNWFDPWGQGTLVTVSS
VL: DIQMTQSPSSVSASVGDRVTITCRASQGISSWLAWYQQKPGKAPKLLIYAASSLQSGVPSRFSGSGSGTDFTLTISSLQPEDFATYYCQQANSFTFGPGTKVDIK
With B18, the “median fluorescence intensity, fold” value in test [1] was 9.74 fold over isotype.

B19: antibody 344 (antibody, V domains shown)
VH: QVQLVESGGGVVQPGRSLRLSCAASGFTFSSYAMHWVRQAPGKGLEWMAVISYDGSNKYYADSVKGRFTISRDNSKNTLYLQMNSLRAEDTAVYFCAKGYSGSYYEPFDYWGQGTLVTVSS
VL: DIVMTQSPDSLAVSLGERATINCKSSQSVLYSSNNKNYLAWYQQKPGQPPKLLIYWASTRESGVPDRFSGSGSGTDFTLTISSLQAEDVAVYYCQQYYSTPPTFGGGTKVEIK
Turning to B19, the “median fluorescence intensity, fold” value in test [1] turned out to be 8.15 fold over isotype.

B20: antibody 523 (antibody, V domains shown)
VH: EVQLVESGGVSVQPGGSLRLSCAASGFSFNTYDMHWVRQGTGKGLEWVSGIGTAGDTYYSDSVKGRCTISRDNAKNSLHLLVKSVRAADTAVYYCARGVGGIIDYWGQGTLVTVSS
VL: NFVLSQPHSVSESPGKTVTISCTGNSGSIATKYVQWFQQRPGSAPTTVIYEDNQRPSGVPDRFSGSSDSSSNSASLTISGLKTEDEAHYYCQSYHNRRWVFGGGTKLTVL
Take B20: the “median fold over isotype” value in test [2] was found to be 3.76 fold over isotype.

B21: antibody 320 (antibody, V domains shown)
VH: QVQLVQSGAEVKKPGASVKVSCKASGYTFTSYGISWVRQAPGQGLEWMGWISAYNGNTNYAQKLQGRVTMTTDTSTRTAYMELRSLRSDDTAVYYCARVGCYYDSSGYSCAENFQHWGQGTLVTVSS
VL: QSVLTQPPSVSGAPGQRVTISCTGSSSNIGAGYDVHWYQQLPGTAPKLLIYGNSNRPSGVPDRFSGSKSGTSASLAITGLQAEDEADYYCQSYDSSLSALFGGGTKLTVL
Consider B21, for which, in test [1], the “median fluorescence intensity, fold” value is 19.7 fold over isotype.

B22: antibody 348 (antibody, V domains shown)
VH: QVQLVQSGSELKKPGASVKVSCKASGYTFTSYAMNWVRQAPGQGLEWMGWINTNTGNPTYAQGFTGRFVFSLDTSVSTAYLQISSLKAEDTAVYYCARDHELPNTSSWFGHFEYWGQGTLVTVSS
VL: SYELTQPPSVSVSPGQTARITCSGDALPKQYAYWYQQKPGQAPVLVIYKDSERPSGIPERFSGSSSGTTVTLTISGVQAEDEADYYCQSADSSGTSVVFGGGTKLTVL
For B22, the “median fluorescence intensity, fold” value in test [1] worked out at 14.2 fold over isotype.

These data come from patent US20210292393A1 (published 2021).
